Experimental data taken from patent US20190111114A1 (BRIGHAM AND WOMEN S HOSPITAL, published 2019).

Molecular target: T1, BCL11A, endogenous, in mouse erythroid (MEL) cells (mouse, UniProt Q9QYE3 1-835, limits assumed)
T1 sequence (looked up): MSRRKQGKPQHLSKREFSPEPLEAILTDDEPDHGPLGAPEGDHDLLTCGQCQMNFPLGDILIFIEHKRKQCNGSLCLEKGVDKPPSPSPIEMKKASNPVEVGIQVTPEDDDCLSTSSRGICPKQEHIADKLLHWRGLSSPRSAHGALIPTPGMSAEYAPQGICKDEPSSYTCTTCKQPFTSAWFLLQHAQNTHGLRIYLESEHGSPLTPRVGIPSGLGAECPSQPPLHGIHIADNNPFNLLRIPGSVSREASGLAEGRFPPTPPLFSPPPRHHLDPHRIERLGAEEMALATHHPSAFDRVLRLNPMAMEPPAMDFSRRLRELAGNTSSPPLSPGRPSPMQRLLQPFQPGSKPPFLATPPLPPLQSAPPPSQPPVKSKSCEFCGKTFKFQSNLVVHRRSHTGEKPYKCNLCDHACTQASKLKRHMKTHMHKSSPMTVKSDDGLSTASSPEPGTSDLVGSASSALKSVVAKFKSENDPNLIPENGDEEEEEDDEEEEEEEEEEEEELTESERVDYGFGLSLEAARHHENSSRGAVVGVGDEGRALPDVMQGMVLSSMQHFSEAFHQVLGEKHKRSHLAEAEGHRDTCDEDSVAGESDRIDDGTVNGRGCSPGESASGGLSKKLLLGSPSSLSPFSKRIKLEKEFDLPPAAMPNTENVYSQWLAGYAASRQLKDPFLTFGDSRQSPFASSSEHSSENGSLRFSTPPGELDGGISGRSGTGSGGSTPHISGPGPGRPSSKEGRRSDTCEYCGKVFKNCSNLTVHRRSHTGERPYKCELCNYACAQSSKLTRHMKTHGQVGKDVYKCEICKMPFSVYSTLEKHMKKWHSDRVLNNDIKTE
Assay: immunoprecipitation of tagged mouse LRF from MEL cells, Western blot
From the text: FKPM values were obtained from RNA-Seq experiments. (B) Validation of Y2H results by IP. […] Protein samples from empty vector-transfected cells served as negative controls. (C) LRF/GATAD2B interaction was validated in mouse erythroleukemia (MEL) cells. Applicants generated a series of expression vectors encoding N- or C-terminally-tagged mouse LRF (mLRF) and performed IP in MEL cells. Applicants could pull-down NuRD components and endogenous LRF protein only when Applicants expressed the LRF tagged at the far C-terminus. Anti-HA antibody could pull down both endogenous and exogenous LRF plus NuRD components (far right lane), while antibody against Flag, which was placed 15 aa upstream of the HA tag, pulled down only exogenous LRF (2nd lane from the left). Although Applicants tested 5 different (2 original and 3 commercially-available) anti-LRF antibodies for IP in mouse cells, none could pull down endogenous mouse LRF protein. Native LRF in the large NuRD complex may be inaccessible to anti-LRF antibodies in mouse cells (a model shown on right). Applicants note that the BCL11A image is from a different membrane. (D) Knockout of LRF or BCL11A was confirmed by Western blot using anti-LRF or -BCL11A antibodies. GAPDH: loading control. (E) Relative copy number of indicated β-globin transcripts was determined by q-PCR, as described in FIG. 8C. […]

- binding result: no binding
B1: mouse LRF tagged at the far C-terminus with Flag and HA (pMX-mCherry-FHC-mLRF), expressed in MEL cells (other, UniProt O88939 1-569, looked up)
chain: MAGGVDGPIGIPFPDHSSDILSGLNEQRTQGLLCDVVILVEGREFPTHRSVLAACSQYFKKLFTSGAVVDQQNVYEIDFVSAEALTALMDFAYTATLTVSTANVGDILSAARLLEIPAVSHVCADLLERQILAADDVGDASQPDGAGPTDQRNLLRAKEYLEFFRSNPMNSLPPTAFPWSGFGAPDDDLDATKEAVAAAVAAVAAGDCNGLDFYGPGPPADRPPAGDGDEGDSTPGLWPERDEDAPPGGLFPPPTAPPATTQNGHYGRAGAGTGEEEAAALSEAAPEPGDSPGFLSGAAEGEDGDAADVDGLAASTLLQQMMSSVGRAGDSDEESRTDDKGVMDYYLKYFSGAHEGDVYPAWSQKGEKKIRAKAFQKCPICEKVIQGAGKLPRHIRTHTGEKPYECNICKVRFTRQDKLKVHMRKHTGEKPYLCQQCGAAFAHNYDLKNHMRVHTGLRPYQCDSCCKTFVRSDHLHRHLKKDGCNGVPSRRGRKPRVRGVPPDVPAGAGAPPGLPDAPRNGQEKHFKDEEEDEEEASPDGSGRLNVAGSGGDDGAGGPAVATAEGNFAT
notes: also called exogenous LRF; not shown: Flag and HA tags at the 3' end of the cDNA, Flag placed 15 aa upstream of the HA tag
